The target of test [1] is T1, Human VEGF 165 (human, UniProt P15692-4 27-191).
T1 construct: Loaded on the BLI probe as the ligand; also called BLI ligand Human VEGF 165 (Avi tag, R&D Systems AVI-293-050); not shown: Avi tag
In words: BLI; KD after 4 days at 37 °C against KD at t = 0. A general note: In BLI a coated tip is dipped into the sample, and binding shifts an interference pattern.

Test [2] concerns the target T1, Human VEGF 165. In words: BLI; KD after 14 days at 37 °C against KD at t = 0.
The target of test [3] is T1, Human VEGF 165. As to the kind of experiment: BLI, VEGF 165 on probe; sample aged 4 days at 37 °C.
For test [4], the target named is T1, Human VEGF 165. In words: BLI, VEGF 165 on probe; sample aged 14 days at 37 °C.
Test [5] deals with T1, Human VEGF 165. As to the kind of experiment: BLI, VEGF 165 on probe, t = 0 (repeats Table 15); limit of detection.
Test [6] addresses T1, Human VEGF 165. In words: BLI, VEGF 165 on probe, conjugate as analyte, t = 0; value is the limit of detection.
Test [7] deals with T1, Human VEGF 165. As to the kind of experiment: BLI, VEGF 165 on probe, conjugate as analyte, t = 0; t = 0, fresh conjugate, not aged.
The target in test [8] is T1, Human VEGF 165. As to the kind of experiment: BLI, VEGF 165 on probe, conjugate as analyte, t = 0.
For test [9], the target named is T1, Human VEGF 165. In words: BLI; KD after 11 days at 37 °C against KD at t = 0.
The target in test [10] is T1, Human VEGF 165. In words: BLI; KD after 32 days at 37 °C against KD at t = 0.
Test [11] addresses T1, Human VEGF 165. As to the kind of experiment: BLI, VEGF 165 on probe; sample aged 32 days at 37 °C.
Test [12] concerns the target T1, Human VEGF 165. As to the kind of experiment: BLI, VEGF 165 on probe, t = 0 (repeats Table 15); limit of detection; t = 0, fresh conjugate, not aged.
Test [13] concerns the target T1, Human VEGF 165. In words: BLI, VEGF 165 on probe; sample aged 11 days at 37 °C; limit of detection; aged 11 days at 37 C (sample 1).
Test [14] has as its target T1, Human VEGF 165. In words: BLI, VEGF binding affinity (KD, nM).
Test [15] deals with T1, Human VEGF 165. In words: BLI, VEGF 165 on probe, conjugate as analyte.

T1 sequence (P15692 other isoform, or with tags, fused parts or gaps limits assumed): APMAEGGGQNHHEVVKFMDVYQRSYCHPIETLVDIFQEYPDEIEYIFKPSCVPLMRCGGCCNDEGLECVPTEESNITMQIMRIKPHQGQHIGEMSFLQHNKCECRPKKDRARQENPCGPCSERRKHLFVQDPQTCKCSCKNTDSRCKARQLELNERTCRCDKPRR

B1: Conjugate 21 (anti-VEGF VHH SEQ ID NO: 91 with aH linker SEQ ID NO: 21 on hyaluronic acid, intermediate 1-9) (VHH)
VHH: DVQLVESGGGLVQPGGSLRLSCAASGRTFSSYSMGWFRQAPGKEREFVVAISKGGYKYDAVSLEGRFTISRDNAKNTVYLQINSLRPEDTAVYYCASSRAYGSSRLRLADTYEYWGQGTLVTVSS
modifications: C-terminal Cys of the peptide linker bound by its thiol to the maleimide of the organic linker MP2H on hyaluronic acid (830 kDa)
notes: Multivalent peptide-hyaluronic acid conjugate (MVP); peptide valency 51; Method 1 intermediate; also called BI VHH anti-VEGF MVP
For B1, the “Change in KD to t = 0” value in the test with Human VEGF 165 [1] was determined as 3300 fold; with Human VEGF 165 [2], 1140 fold. Also, the Kd in the test with Human VEGF 165 [3] was 3.3 nM; with Human VEGF 165 [4], 1.14 nM; with Human VEGF 165 [5], < 0.001 nM; with Human VEGF 165 [6], < 0.001 nM.

B2: Conjugate 14 (anti-VEGF VHH SEQ ID NO: 91 with Rigid linker SEQ ID NO: 31 on hyaluronic acid, intermediate 5-3) (VHH)
VHH: DVQLVESGGGLVQPGGSLRLSCAASGRTFSSYSMGWFRQAPGKEREFVVAISKGGYKYDAVSLEGRFTISRDNAKNTVYLQINSLRPEDTAVYYCASSRAYGSSRLRLADTYEYWGQGTLVTVSS
modifications: C-terminal Cys of the peptide linker bound by its thiol to the maleimide of the organic linker MP2H on hyaluronic acid (830 kDa)
notes: Multivalent peptide-hyaluronic acid conjugate (MVP); peptide valency 68; Method 5 intermediate; also called BI VHH anti-VEGF MVP
As to B2, binding with Human VEGF 165 [7] was characterised by a dissociation constant (Kd) of 0.203 nM.

B3: Conjugate 13 (anti-VEGF VHH SEQ ID NO: 91 with Rigid linker SEQ ID NO: 31 on hyaluronic acid, intermediate 5-8) (VHH)
VHH: DVQLVESGGGLVQPGGSLRLSCAASGRTFSSYSMGWFRQAPGKEREFVVAISKGGYKYDAVSLEGRFTISRDNAKNTVYLQINSLRPEDTAVYYCASSRAYGSSRLRLADTYEYWGQGTLVTVSS
modifications: C-terminal Cys of the peptide linker bound by its thiol to the maleimide of the organic linker MP2H on hyaluronic acid (830 kDa)
notes: Multivalent peptide-hyaluronic acid conjugate (MVP); peptide valency 72; Method 5 intermediate; also called BI VHH anti-VEGF MVP
With B3, in the test with Human VEGF 165 [8], the Kd turned out to be 0.011 nM.

B4: Conjugate 1 (anti-VEGF DARPin SEQ ID NO: 92 on hyaluronic acid, intermediate 5-4) (designed binder)
chain: GSDLDKKLLEAARAGQDDEVRILMANGADVNARDSTGWTPLHLAAPWGHPEIVEVLLKNGADVNAADFQGWTPLHLAAAVGHLEIVEVLLKYGADVNAQDKFGKTAFDISIDNGNEDLAEILQKAAGGGSGGGS
modifications: peptide bound through the organic linker MP2H to hyaluronic acid (830 kDa); site of attachment not stated
notes: Multivalent peptide-hyaluronic acid conjugate (MVP); peptide valency 68; Method 5 intermediate (high EDC, N-acylurea adducts); also called DARPin MVP (Method 5)
Take B4: the figures for the “Change in KD to t = 0” value in the test with Human VEGF 165 [9] and in the test with Human VEGF 165 [10] were 1 fold and 75 fold, respectively. The Kd with Human VEGF 165 [11] is 0.075 nM; in the test with Human VEGF 165 [6], < 0.001 nM; in the test with Human VEGF 165 [12], < 0.001 nM; with Human VEGF 165 [13], < 0.001 nM.

B5: Conjugate 3 (anti-VEGF DARPin SEQ ID NO: 92 on hyaluronic acid, intermediate 5-5) (designed binder)
chain: GSDLDKKLLEAARAGQDDEVRILMANGADVNARDSTGWTPLHLAAPWGHPEIVEVLLKNGADVNAADFQGWTPLHLAAAVGHLEIVEVLLKYGADVNAQDKFGKTAFDISIDNGNEDLAEILQKAAGGGSGGGS
modifications: peptide bound through the organic linker MP2H to hyaluronic acid (830 kDa); site of attachment not stated
notes: Multivalent peptide-hyaluronic acid conjugate (MVP); peptide valency 67; Method 5 intermediate; also called DARPin MVP (Method 5)
Regarding B5, in the test with Human VEGF 165 [6], the Kd is < 0.001 nM.

B6: Conjugate 9 (anti-VEGF E1-1 SEQ ID NO: 81 with aH linker SEQ ID NO: 21 on hyaluronic acid, intermediate 5-9) (VHH)
VHH: EVQLQASGGGFVQPGGSLRLSCAASGGGSDAGTMGWFRQAPGKEREFVSAISWAGTAWRYYADSVKGRFTISRDNSKNTVYLQMNSLRAEDTATYYCALGSYEMDHHYWGQGTQVTVSS
modifications: C-terminal Cys of the peptide linker bound by its thiol to the maleimide of the organic linker MP2H on hyaluronic acid (830 kDa)
notes: Multivalent peptide-hyaluronic acid conjugate (MVP); peptide valency 51; Method 5 intermediate
As to B6, the Kd with Human VEGF 165 [8] is 0.678 nM.

B7: Conjugate 10 (anti-VEGF E1-1 SEQ ID NO: 81 with aH linker SEQ ID NO: 21 on hyaluronic acid, intermediate 2-4) (VHH)
VHH: EVQLQASGGGFVQPGGSLRLSCAASGGGSDAGTMGWFRQAPGKEREFVSAISWAGTAWRYYADSVKGRFTISRDNSKNTVYLQMNSLRAEDTATYYCALGSYEMDHHYWGQGTQVTVSS
modifications: C-terminal Cys of the peptide linker bound by its thiol to the maleimide of the organic linker MP2H on hyaluronic acid (830 kDa)
notes: Multivalent peptide-hyaluronic acid conjugate (MVP); peptide valency 136; Method 2 intermediate; also called anti-VEGF E1-1 MVP (Method 2)
In the test with Human VEGF 165 [8], B7 returned a Kd of 0.123 nM.

B8: HuNb42_A88P_aH_CYS (unconjugated) (VHH)
VHH: QVQLVESGGGLVQPGGSLRLSCAASGFAYSTYSMGWFRQAPGKEREAVATINSGTFRLWYTDSVKGRFTISRDNSKNTLYLQMNSLRPEDTAVYYCAARAWSPYSSTVDAGDFRYWGQGTLVTVSS
notes: Free peptide, not conjugated to hyaluronic acid
B8: in the test with Human VEGF 165 [14], the binding result was “binds”.

B9: Conjugate 28 (N42 anti-VEGF VHH, HuNb42 A88P aH_CYS, SEQ ID NO: 145, on hyaluronic acid, Method B intermediate) (VHH)
VHH: QVQLVESGGGLVQPGGSLRLSCAASGFAYSTYSMGWFRQAPGKEREAVATINSGTFRLWYTDSVKGRFTISRDNSKNTLYLQMNSLRPEDTAVYYCAARAWSPYSSTVDAGDFRYWGQGTLVTVSS
modifications: C-terminal Cys bound by its thiol to the maleimide of the organic linker MP2H on hyaluronic acid (830 kDa)
notes: Multivalent peptide-hyaluronic acid conjugate; valency 129
In the test with Human VEGF 165 [15], B9 had a Kd of 0.00107 nM.

By Kd is commonly meant the constant that tells how readily two partners part at equilibrium. Low readings indicate a tighter complex, high ones a looser complex.

The record behind these values is patent US20230405133A1, “PURIFIED MULTIVALENT PROTEIN-HYALURONIC ACID POLYMER CONJUGATES” (Valitor, Inc., priority 2022, published 2023).
